From article PMC5572259, “The C-terminal Six Amino Acids of the FNT Channel FocA Are Required for Formate Translocation But Not Homopentamer Integrity” (Frontiers in Microbiology, 2017) come the findings set out here.

B1: FocA5D283 (FocA truncation variant ending with D283, lacking H284 and H285) (domain or fragment, Escherichia coli, UniProt P0AC23 1-283, looked up)
chain: MKADNPFDLLLPAAMAKVAEEAGVYKATKHPLKTFYLAITAGVFISIAFVFYITATTGTGTMPFGMAKLVGGICFSLGLILCVVCGADLFTSTVLIVVAKASGRITWGQLAKNWLNVYFGNLVGALLFVLLMWLSGEYMTANGQWGLNVLQTADHKVHHTFIEAVCLGILANLMVCLAVWMSYSGRSLMDKAFIMVLPVAMFVASGFEHSIANMFMIPMGIVIRDFASPEFWTAVGSAPENFSHLTVMNFITDNLIPVTIGNIIGGGLLVGLTYWVIYLREND
notes: source: E. coli BL21(DE3) with pfocA5D283, membrane fraction solubilised with DDM, purified (Strep-Tactin-Sepharose); not shown: Strep-tag II, N-terminal, kept
B2: FocA5R280 (FocA truncation variant ending with R280, lacking E281, N282, D283, H284 and H285) (domain or fragment, Escherichia coli, UniProt P0AC23 1-280, looked up)
chain: MKADNPFDLLLPAAMAKVAEEAGVYKATKHPLKTFYLAITAGVFISIAFVFYITATTGTGTMPFGMAKLVGGICFSLGLILCVVCGADLFTSTVLIVVAKASGRITWGQLAKNWLNVYFGNLVGALLFVLLMWLSGEYMTANGQWGLNVLQTADHKVHHTFIEAVCLGILANLMVCLAVWMSYSGRSLMDKAFIMVLPVAMFVASGFEHSIANMFMIPMGIVIRDFASPEFWTAVGSAPENFSHLTVMNFITDNLIPVTIGNIIGGGLLVGLTYWVIYLR
notes: FocA, Escherichia coli, stop codon at codon 281 (lacking E281, N282, D283, H284 and H285); also called FocAR280; source: E. coli BL21(DE3) with pfocA5R280, membrane fraction solubilised with DDM, purified (Strep-Tactin-Sepharose); not shown: Strep-tag II, N-terminal, kept
B3: FocA5L279 (FocA truncation variant ending with L279, lacking R280, E281, N282, D283, H284 and H285) (domain or fragment, Escherichia coli, UniProt P0AC23 1-279, looked up)
chain: MKADNPFDLLLPAAMAKVAEEAGVYKATKHPLKTFYLAITAGVFISIAFVFYITATTGTGTMPFGMAKLVGGICFSLGLILCVVCGADLFTSTVLIVVAKASGRITWGQLAKNWLNVYFGNLVGALLFVLLMWLSGEYMTANGQWGLNVLQTADHKVHHTFIEAVCLGILANLMVCLAVWMSYSGRSLMDKAFIMVLPVAMFVASGFEHSIANMFMIPMGIVIRDFASPEFWTAVGSAPENFSHLTVMNFITDNLIPVTIGNIIGGGLLVGLTYWVIYL
notes: FocA, Escherichia coli, stop codon at codon 280 (lacking R280, E281, N282, D283, H284 and H285); also called FocAL279; source: E. coli BL21(DE3) with pfocAL279 (pfocA5L279), membrane fraction solubilised with DDM, purified (Strep-Tactin-Sepharose); not shown: Strep-tag II, N-terminal, kept
B4: FocA5E281 (FocA truncation variant ending with E281, lacking N282, D283, H284 and H285) (domain or fragment, Escherichia coli, UniProt P0AC23 1-281, looked up)
chain: MKADNPFDLLLPAAMAKVAEEAGVYKATKHPLKTFYLAITAGVFISIAFVFYITATTGTGTMPFGMAKLVGGICFSLGLILCVVCGADLFTSTVLIVVAKASGRITWGQLAKNWLNVYFGNLVGALLFVLLMWLSGEYMTANGQWGLNVLQTADHKVHHTFIEAVCLGILANLMVCLAVWMSYSGRSLMDKAFIMVLPVAMFVASGFEHSIANMFMIPMGIVIRDFASPEFWTAVGSAPENFSHLTVMNFITDNLIPVTIGNIIGGGLLVGLTYWVIYLRE
notes: source: E. coli BL21(DE3) with pfocA5E281, membrane fraction solubilised with DDM, purified (Strep-Tactin-Sepharose); not shown: Strep-tag II, N-terminal, kept
B5: FocA5H284 (FocA truncation variant ending with H284, lacking H285) (domain or fragment, Escherichia coli, UniProt P0AC23 1-284, looked up)
chain: MKADNPFDLLLPAAMAKVAEEAGVYKATKHPLKTFYLAITAGVFISIAFVFYITATTGTGTMPFGMAKLVGGICFSLGLILCVVCGADLFTSTVLIVVAKASGRITWGQLAKNWLNVYFGNLVGALLFVLLMWLSGEYMTANGQWGLNVLQTADHKVHHTFIEAVCLGILANLMVCLAVWMSYSGRSLMDKAFIMVLPVAMFVASGFEHSIANMFMIPMGIVIRDFASPEFWTAVGSAPENFSHLTVMNFITDNLIPVTIGNIIGGGLLVGLTYWVIYLRENDH
notes: FocA, Escherichia coli, stop codon at codon 285 (lacking H285); source: E. coli BL21(DE3) with pfocA5H284, membrane fraction solubilised with DDM, purified (Strep-Tactin-Sepharose); not shown: Strep-tag II, N-terminal, kept
B6: FocA5N282 (FocA truncation variant ending with N282, lacking D283, H284 and H285) (domain or fragment, Escherichia coli, UniProt P0AC23 1-282, looked up)
chain: MKADNPFDLLLPAAMAKVAEEAGVYKATKHPLKTFYLAITAGVFISIAFVFYITATTGTGTMPFGMAKLVGGICFSLGLILCVVCGADLFTSTVLIVVAKASGRITWGQLAKNWLNVYFGNLVGALLFVLLMWLSGEYMTANGQWGLNVLQTADHKVHHTFIEAVCLGILANLMVCLAVWMSYSGRSLMDKAFIMVLPVAMFVASGFEHSIANMFMIPMGIVIRDFASPEFWTAVGSAPENFSHLTVMNFITDNLIPVTIGNIIGGGLLVGLTYWVIYLREN
notes: FocA, Escherichia coli, stop codon at codon 283 (lacking D283, H284 and H285); source: E. coli BL21(DE3) with pfocA5N282, membrane fraction solubilised with DDM, purified (Strep-Tactin-Sepharose); not shown: Strep-tag II, N-terminal, kept
B7: N-terminally Strep-tagged FocA (native, full-length formate channel FocA of Escherichia coli) (natural protein, UniProt P0AC23 1-285, looked up)
chain: MKADNPFDLLLPAAMAKVAEEAGVYKATKHPLKTFYLAITAGVFISIAFVFYITATTGTGTMPFGMAKLVGGICFSLGLILCVVCGADLFTSTVLIVVAKASGRITWGQLAKNWLNVYFGNLVGALLFVLLMWLSGEYMTANGQWGLNVLQTADHKVHHTFIEAVCLGILANLMVCLAVWMSYSGRSLMDKAFIMVLPVAMFVASGFEHSIANMFMIPMGIVIRDFASPEFWTAVGSAPENFSHLTVMNFITDNLIPVTIGNIIGGGLLVGLTYWVIYLRENDHH
notes: Formate channel FocA, Escherichia coli, full length (ends with H285; C-terminal residues after R280 are ENDHH); Kept in 2 mM DDM after purification; also called FocA5; native FocA5; source: E. coli BL21(DE3) with pfocA5 (pASK-IBA5focA), membrane fraction solubilised with DDM, purified (Strep-Tactin-Sepharose); not shown: Strep-tag II, N-terminal, kept

“And” between values parts separate entries of the source, which are not always exact repeats. Equal entries are not always repeated.

Broadly, the stoichiometry N is the number of molecules, sites or subunits per partner or assembly.

This data set deals with the molecule itself. Kind of data set: native gel or EMSA; blue-native PAGE, 5-13.5% (w/v polyacrylamide) gradient gel, 5 ug of purified DDM-solubilised FocA variant per lane. In general terms: In EMSA bound probe runs differently from free probe, usually more slowly.
On to B1, for which the “stoichiometry N” value is 5.
As for B2, the “stoichiometry N” value is 10 and 5.
As for B3, the figure is 5 and 10.
In the case of B4, the “stoichiometry N” value turned out to be 5.
Regarding B5, the “stoichiometry N” value is 10 and 5.
As for B6, the figure is 10 and 5; as for B7, 5 and 10.
